According to patent US20200354457A1 (Hoffmann-La Roche, published 2020):
Substitutions are numbered along the chain they refer to.

B1: LAG3 P11A2 aVH domain (VHH)
VHH: EVQLVESGGGLVQPGGSLRLSCAASSFNIKDTYIGWVRRAPGKGTELVAEIACHEGTTRYADSVKGRFTISCDTSKNTAYLQMNSLRAEDTAVYYCANTEYDDIFDYWGQGTTVTVSS
B2: LAG3 21B11 aVH domain (VHH)
VHH: EVQLVESGGGLVQPGGSLRLSCAASGFNIKDTCIGWVRRAPGKGTELVAEICQDIGYTRYADSVKGRFTISADTSKNTAYLQMNSLRAEDTAVYYCAADESVDNFKYWGQGTTVTVSS
B3: LAG3 P9G1 aVH domain (VHH)
VHH: B2 VHH with A98G, D99E, S101G, V102A, D103T
B4: LAG3 P21A03 aVH domain (VHH)
VHH: B2 VHH with Q53E, D99N, S101H, V102S, D103V, N104G, K106N
notes: also called 21A3
B5: LAG3 9B4 aVH domain (VHH)
VHH: B2 VHH with D99V, S101V, V102A, D103E, N104Y, K106E
B6: LAG3 17D7 aVH domain (VHH)
VHH: B2 VHH with Q53T, D99G, S101G, V102S, D103S, N104G, K106H
B7: LAG3 19G3 aVH domain (VHH)
VHH: B2 VHH with D31Y, T32Q, Q53S, D54Y, I55D, D99E, D103E, N104G, K106I
notes: also called P19G3
B8: LAG3 P11E9 aVH domain (VHH)
VHH: B2 VHH with Q53H, D99E, S101H, D103A, N104S, K106E
B9: LAG3 P10C3 aVH domain (VHH)
VHH: B2 VHH with Q53T, I55A, D99S, V102P, D103S, N104G, K106R
B10: LAG3 P10D1 aVH domain (VHH)
VHH: B2 VHH with N28S, G35A, Q53E, D99K, S101A, V102G, D103V, N104G, K106D
notes: also called P110D1
B11: LAG3 P11E2 aVH domain (VHH)
VHH: B2 VHH with Q53D, A98S, D99Q, S101H, V102Q, D103W, N104S

Target: T1, soluble human Lag3-IgG1-Fc with biotinylated C-terminal Avi-tag (human, biotin on the C-terminal Avi-tag)
T1 construct: also called LAG3-Fc-avi; biotinylated LAG3-Fc antigen
Test: SPR (ProteOn XPR36), biotinylated LAG3-Fc captured on NLC chip, purified aVH as analyte, 25 C;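 also: One-shot kinetics in PBST running buffer, rates fitted by 1:1 Langmuir model fitting association and dissociation together, KD as koff/kon, biotinylated Fc surface as negative control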

T1 sequence (chain, as listed by the source limits assumed): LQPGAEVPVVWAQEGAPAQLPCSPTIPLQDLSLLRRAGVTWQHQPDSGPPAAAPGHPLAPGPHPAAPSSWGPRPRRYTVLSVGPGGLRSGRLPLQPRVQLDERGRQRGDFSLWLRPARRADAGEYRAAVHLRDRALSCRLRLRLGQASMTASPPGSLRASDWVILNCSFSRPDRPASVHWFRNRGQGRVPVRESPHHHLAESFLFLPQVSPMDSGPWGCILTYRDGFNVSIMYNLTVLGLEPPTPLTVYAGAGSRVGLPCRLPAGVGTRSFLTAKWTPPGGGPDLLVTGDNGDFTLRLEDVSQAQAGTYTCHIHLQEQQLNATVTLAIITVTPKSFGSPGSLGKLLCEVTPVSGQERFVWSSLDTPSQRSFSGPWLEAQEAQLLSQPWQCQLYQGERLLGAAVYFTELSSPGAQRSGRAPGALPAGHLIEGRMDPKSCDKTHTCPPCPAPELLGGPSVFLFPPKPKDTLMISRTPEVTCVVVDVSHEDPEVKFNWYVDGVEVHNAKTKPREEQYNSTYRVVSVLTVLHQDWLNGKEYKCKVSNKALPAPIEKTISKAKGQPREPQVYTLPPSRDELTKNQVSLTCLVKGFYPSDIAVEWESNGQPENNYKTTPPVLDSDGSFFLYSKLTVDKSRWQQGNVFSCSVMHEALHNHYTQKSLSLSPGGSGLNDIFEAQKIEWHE

| Kd | koff | kon | Binder |
| --- | --- | --- | --- |
| 55 nM | 0.0138 s⁻¹ | 251000 M⁻¹ s⁻¹ | B1 |
| 43 nM | 0.00217 s⁻¹ | 62700 M⁻¹ s⁻¹ | B2 |
| 5.1 nM | 0.000829 s⁻¹ | 162000 M⁻¹ s⁻¹ | B3 |
| 13.7 nM | 0.000387 s⁻¹ | 28200 M⁻¹ s⁻¹ | B4 |
| 86 nM | 0.00314 s⁻¹ | 36500 M⁻¹ s⁻¹ | B5 |
| 311 nM | 0.00493 s⁻¹ | 15900 M⁻¹ s⁻¹ | B6 |
| 766 nM | 0.00466 s⁻¹ | 6080 M⁻¹ s⁻¹ | B7 |
| 6.81 nM | 0.000656 s⁻¹ | 96300 M⁻¹ s⁻¹ | B8 |
| 38.5 nM | 0.00217 s⁻¹ | 56200 M⁻¹ s⁻¹ | B9 |
| 27 nM | 0.00383 s⁻¹ | 144000 M⁻¹ s⁻¹ | B10 |
| 36.7 nM | 0.00157 s⁻¹ | 42800 M⁻¹ s⁻¹ | B11 |
